Reference: publication PMC12359043, “Chemical crosslinking extends and complements UV crosslinking in analysis of RNA/DNA nucleic acid–protein interaction sites by mass spectrometry”

Target: NELF complex WT (NELF-A/B/C-D/E) (human, UniProt Q9H3P2;Q8WX92;Q8IXH7;P18615 1-528;49-628;1-590;1-380)
Assay: fluorescence anisotropy; NELF-TAR complex: 20 mM HEPES/NaOH pH 7.4, 150 mM NaCl, 10% glycerol, 1 mM DTT, mixed 30 min at 4 C; anisotropy conditions only by reference [29]; Hsh49-Cus1-U2 reconstituted 30 min on ice; Dnmt2 dialysed in 50 mM HEPES pH 7.5, 150 mM NaCl, 2 mM DTT
Settings: protein: recombinant; copies: 1;1;1;1; hairpin

Chain of NELF complex WT (NELF-A/B/C-D/E) (Q9H3P2 whole entry, chain 1 of 4): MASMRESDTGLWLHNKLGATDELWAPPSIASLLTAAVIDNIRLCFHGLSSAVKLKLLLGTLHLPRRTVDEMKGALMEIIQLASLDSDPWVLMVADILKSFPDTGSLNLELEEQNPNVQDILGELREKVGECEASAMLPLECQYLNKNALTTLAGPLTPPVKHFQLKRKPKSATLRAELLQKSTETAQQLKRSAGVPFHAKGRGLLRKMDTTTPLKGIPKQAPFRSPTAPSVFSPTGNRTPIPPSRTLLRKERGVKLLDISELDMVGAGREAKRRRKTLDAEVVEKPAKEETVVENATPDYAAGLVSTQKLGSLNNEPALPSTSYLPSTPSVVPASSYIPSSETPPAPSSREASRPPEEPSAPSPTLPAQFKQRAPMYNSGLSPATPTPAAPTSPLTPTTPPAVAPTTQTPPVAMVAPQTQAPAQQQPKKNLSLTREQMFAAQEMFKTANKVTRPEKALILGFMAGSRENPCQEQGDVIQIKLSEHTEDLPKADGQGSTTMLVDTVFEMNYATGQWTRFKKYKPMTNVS
Chain of NELF complex WT (NELF-A/B/C-D/E) (Q8WX92 whole entry, chain 2 of 4): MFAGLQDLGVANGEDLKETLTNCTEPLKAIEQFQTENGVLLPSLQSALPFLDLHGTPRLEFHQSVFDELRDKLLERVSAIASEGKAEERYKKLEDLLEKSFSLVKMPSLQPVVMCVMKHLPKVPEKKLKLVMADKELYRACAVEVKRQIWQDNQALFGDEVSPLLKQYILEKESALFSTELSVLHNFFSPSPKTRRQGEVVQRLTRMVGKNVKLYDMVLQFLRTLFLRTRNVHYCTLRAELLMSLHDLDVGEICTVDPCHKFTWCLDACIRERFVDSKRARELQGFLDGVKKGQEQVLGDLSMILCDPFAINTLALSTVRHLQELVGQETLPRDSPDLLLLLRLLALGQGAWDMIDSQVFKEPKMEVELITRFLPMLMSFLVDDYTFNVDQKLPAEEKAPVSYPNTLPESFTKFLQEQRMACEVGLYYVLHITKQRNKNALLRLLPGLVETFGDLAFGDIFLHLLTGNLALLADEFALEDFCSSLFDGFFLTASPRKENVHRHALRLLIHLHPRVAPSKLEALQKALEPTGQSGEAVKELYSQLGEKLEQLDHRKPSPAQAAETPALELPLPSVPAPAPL
Chain of NELF complex WT (NELF-A/B/C-D/E) (Q8IXH7 whole entry, chain 3 of 4): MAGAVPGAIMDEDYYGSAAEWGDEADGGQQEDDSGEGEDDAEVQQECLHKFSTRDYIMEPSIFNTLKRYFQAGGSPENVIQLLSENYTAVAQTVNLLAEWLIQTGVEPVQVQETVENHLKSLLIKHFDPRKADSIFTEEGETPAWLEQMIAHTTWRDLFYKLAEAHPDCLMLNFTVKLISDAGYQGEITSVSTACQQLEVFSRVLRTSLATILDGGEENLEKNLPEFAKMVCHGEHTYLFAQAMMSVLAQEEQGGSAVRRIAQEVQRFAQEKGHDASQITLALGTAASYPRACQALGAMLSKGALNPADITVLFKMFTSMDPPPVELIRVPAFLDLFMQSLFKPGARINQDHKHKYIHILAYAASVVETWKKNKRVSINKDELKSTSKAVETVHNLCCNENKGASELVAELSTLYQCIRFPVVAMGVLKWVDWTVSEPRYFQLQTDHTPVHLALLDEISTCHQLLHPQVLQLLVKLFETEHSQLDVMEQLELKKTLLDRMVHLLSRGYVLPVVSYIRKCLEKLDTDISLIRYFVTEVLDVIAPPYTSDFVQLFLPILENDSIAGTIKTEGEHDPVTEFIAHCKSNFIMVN
Chain of NELF complex WT (NELF-A/B/C-D/E) (P18615 whole entry, chain 4 of 4): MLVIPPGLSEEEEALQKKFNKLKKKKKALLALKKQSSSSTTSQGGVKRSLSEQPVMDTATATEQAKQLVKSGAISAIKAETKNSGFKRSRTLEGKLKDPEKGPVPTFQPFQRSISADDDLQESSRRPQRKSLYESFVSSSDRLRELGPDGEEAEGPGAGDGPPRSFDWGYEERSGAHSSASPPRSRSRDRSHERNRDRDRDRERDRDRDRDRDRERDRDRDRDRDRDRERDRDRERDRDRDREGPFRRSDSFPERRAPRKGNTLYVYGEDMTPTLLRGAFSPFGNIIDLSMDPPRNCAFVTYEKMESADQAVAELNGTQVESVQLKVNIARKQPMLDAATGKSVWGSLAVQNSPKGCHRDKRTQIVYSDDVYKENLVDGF

Binder: CCAGAUCUGAGCCUGGGAGCUCUCUGG (structured_RNA) [HIV-1 TAR stem-loop RNA]
- binding result: binds
